The text below walks through data of publication PMC5274527.

Assay [1] addresses human red cone opsin fused at its C-terminus to eGFP or mCherry (human) (UniProt P04000). Nature of the assay: fluorescence correlation spectroscopy.
Assay [2] has the same target. Kind of assay: FRET or BRET. (In general: Bioluminescence resonance energy transfer reports proximity on the nanometre scale.)
For assay [3] the target is unchanged. Kind of assay: pulsed-interleaved excitation fluorescence cross-correlation spectroscopy.
Assay [4] has as its target human red cone opsin with C-terminal 1D4 tag (pcDNA3.1(+), without eGFP) (human) (UniProt P04000). Kind of assay: cross-linking.

One may read the stoichiometry N as the number of molecules, sites or subunits per partner or assembly. In assay [1], “human red cone opsin fused at its C-terminus to eGFP or mCherry (from UniProt P04000 1-352) (receptor)” displayed an average molecular brightness of 738 cpsm and a stoichiometry N of 2. Besides, in assay [2], the FRET efficiency (average) is 3.6% and the FRET efficiency (highest single-cell value) was 12%. This substance had a median fc (relative cross-correlation) in assay [3] of 0.19.

For “human red cone opsin with C-terminal 1D4 tag (pcDNA3.1(+), without eGFP) (from UniProt P04000 1-352) (receptor)”, in assay [4], the percent DSG dimers (of monomer plus dimer bands) came to 79%.
